Data as given in doi:10.1101/2023.10.12.561995 (bioRxiv, 2023).

How the values were obtained:
[1] = molecular target: T1, SARS-CoV-2 RBD (wildtype), residues 319-541 of S-protein (SARS-CoV-2 wildtype, UniProt P0DTC2); test: cell-based or functional assay
[2] = molecular target: T1, SARS-CoV-2 RBD (wildtype), residues …; test: BLI

B1: R1-26 (mAb, human IgG1) (antibody, V domains shown)
VH: EVQLVESGGGLVQPGGSLRLSCAASGFTFSSYWMSWVRQAPGKGLEWVANIKQDGSEKYYVDSVKGRFTISRDNAKNSLYLQMNSLRAEDTAVYYCARGQLGPWVGVDYWGQGTLVTVSS
VL: NFMLTQPHSVSESPGKTVTISCTGSSGSIASNYVQWYQQRPGSAPTTVIYEDNQRPSGVPDRFSGSIDSSSNSASLTISGLKTEDEADYYCQSYDSSNWVFGGGTQLTVL
[1]
  neutralisation of a pseudovirus displaying WT SARS-CoV-2 S-protein, IC50: 2.7 nM
[2]
  Kd: 3.8 nM
